Experimental data published in patent publication US20180051082A1.

Legend:
[1] = target: cynomolgus FcRn (cynomolgus monkey) (UniProt Q8SPV9); assay: BIACORE-based assay, antibody bound to FcRn at pH 6.0, residual bound antibody after adjustment to pH 7.4
human FcRn (human) = human FcRn (human) (UniProt P55899); assay: as above

Chain of cynomolgus FcRn (cynomolgus monkey) (Q8SPV9 24-297): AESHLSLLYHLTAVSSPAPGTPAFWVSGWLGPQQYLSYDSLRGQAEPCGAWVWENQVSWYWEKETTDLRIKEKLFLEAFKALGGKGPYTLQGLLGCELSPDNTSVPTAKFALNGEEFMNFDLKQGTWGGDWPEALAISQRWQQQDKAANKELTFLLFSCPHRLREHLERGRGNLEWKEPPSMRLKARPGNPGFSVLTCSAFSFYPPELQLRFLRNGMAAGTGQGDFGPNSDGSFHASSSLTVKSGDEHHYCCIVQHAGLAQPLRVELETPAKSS

% Residual Binding at pH 7.4 [1]: 1.7% | % Residual Binding at pH 7.4 (human FcRn (human)): 2%
Substance: human IgG1 version of BMS-936558, designated BMS (antibody)
